# In the RNAGym collection of RNA variant scans (doi:10.1073/pnas.2313332121):
# B1: TPR t1 (parent)
# chain: GACCAAUCUGCCCUCAGAGCUCGAGAACAUCUUCGGAUGCAGAGGAGGCAGGCUUCGGUGGCGCGAUAGCGCCAACGUCCUCAACCUCCAAUGCAUCCCACCACAUGAUGAUGCCUGAAGAGCCUUGGUUUUUUG
# Variants of: B1
# Test: polymerase ribozyme fitness, log enrichment relative to wild type (log ratio); higher = more active; in vitro selection for triplet polymerase activity
# In short: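 A single round of triplicate in vitro selection, including frozen incubation at −7 °C, was applied to PCR-built, transcribed mutant libraries of each subunit of a heterodimeric triplet polymerase ribozyme. Illumina sequencing of input and output libraries retained genotypes with ≥10 input reads and ≥1 read per output. Fitness is the base-2 logarithm of genotype enrichment divided by wild-type enrichment, from inverse-variance-weighted replicate averages.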
row,Variant,polymerase ribozyme fitness (log ratio)
1,G47U U55A C70A C94G,-4.15
2,C20U G63A,-1.73
3,C20A C34U C72U C76A C82A A121C G135U,-6.49
4,A29U G63U U78C,-4.96
5,A18U C72U U78A,-2.59
6,A2U G57C,-2.3
7,U9G A121U C123U,2.06
8,G45A C73U G93C,-1.34
9,G17U U116A G120A U129G,-5.36
10,A46G C80U C94U,-1.95
11,C49A A83U,-0.343
12,G10A A37C A84C A95G,-0.834
13,C49G C53A C94U U116G,-2.47
14,C3U C70U U78G U87A,-1.1
15,C64A G110A G120A,-7.98
16,G17U G47A C49U C53U C72U,-4
17,C12U C15U C49A C73G C101U U133G,-1.62
18,C28U A46U A74U,-3.5
19,C15U U21C C49G C62A G117A,-1.27
20,A18U C22G A66U U78C C82U,-6.51
21,U54A G71U,-0.0584

row,Variant,polymerase ribozyme fitness (log ratio)
1,G48A G61U,-0.0763
2,G113A C123G U129A,-1.16
3,C12A G39U G117A,-2.74
4,G10A C13A C70U,-1.36
5,A41U U78G C82U A91G A121C,-1.41
6,U106A U126C,-0.645
7,U21G C40U G47U G63U C98A G120C,-7.2
8,A50U G63A,-1.47
9,G42U U59C U87A A100U,-4.01
10,G17U C124G G128C,-1.84
11,G45U A74C G77A U112C,1.05
12,G57U G71U U87G,-0.217
13,A5G C12A C72G U87A C115G U131C,-3.53
14,A66G G71U C94A A111C,-4.73
15,C8G G60A,0.62
16,A24U C53U,-6.23
17,C72U G127C,-1.75
18,A41U G69C G127U,-3.25
19,C62A C124A,1.01
20,C15A G39A U87G U112G,-2.16
21,C85G U106C,-0.939

row,Variant,polymerase ribozyme fitness (log ratio)
1,C8U G57A,-0.0154
2,A37U C101A C115U G127C,-4.26
3,G19C A37U A46C C72A C76U C82G C124A,-4.65
4,G69U U116C,0.102
5,U21A U59A U81G C82G C115U,-5.96
6,G60A A95U,-0.238
7,C49U,-0.473
8,C40A G42U C56A,-2.35
9,C20U C62G,-3.42
10,C98G G110A,-4.98
11,C72G G135A,-0.341
12,C3G G47U G93A,-4.99
13,A5G C56U,-0.367
14,A50C C72G,-0.555
15,G60C G117U,-3.4
16,A5G C85G,-2.35
17,C3A C53A G57A C70A A95C G117C,-5.27
18,C13U G57A G69A G110U,-6.08
19,C82U U96C C98U C115A G117C,-6.13
20,A43U C79U,-0.702
21,C62U U87A,0.539

row,Variant,polymerase ribozyme fitness (log ratio)
1,A103U A111G,-3.31
2,G69U A74U C80U,-0.977
3,G110U U112A,-2.85
4,C12U A84C G120U,1.69
5,U9G G10U C70G U109G,-6.73
6,A50C C72U G135A,-1.52
7,C72G C88U C123A,0.243
8,U54A C70U C88G C89U C115A,-0.838
9,C12A A18U C56U A68C C79U C115U A118C U131C,-6.43
10,G45C C73U G117A G135U,-4
11,C13U G71A U78G U87A U131A,-1.51
12,G47A C85A G117C A121C,-5.39
13,A26U C88A A119U,-4.48
14,G63C U109C,-4.03
15,C12U C73A U96A C104U,-0.414
16,U112A G113U,-0.351
17,A18C G60A C89G U106A,-3.6
18,G17A U112A,-1.5
19,G63C G107U,-5.92
20,C56G G135C,-0.404
21,C12U A26G C64A C73U G110C,-5.13
